The target of experiment [1] is T1, recombinant human connective tissue growth factor (CTGF) (Homo sapiens, UniProt P29279).
T1 construct: connective tissue growth factor (CTGF, CCN2), human, recombinant; The methods of the SPR say only that 'CTGF' was amine-coupled; also called hCTGF; CCN2
As to the kind of experiment: SPR; Biacore T200; CTGF amine-coupled on a CM5 chip; scFvs or IgG in running buffer PBS pH 7.4 flowed for 3 min at 10 µl/min, 5 min dissociation, regeneration with 1 M NaCl. Conditions: both partners purified.

For experiment [2], the target named is T1, recombinant human connective tissue …. Nature of the experiment: cell-based or functional assay.

From article PMC9985226, “A fully human connective tissue growth factor blocking monoclonal antibody ameliorates experimental rheumatoid arthritis through inhibiting angiogenesis” (BMC Biotechnology, 2023) come the findings set out here.

Substitutions are numbered along the chain they refer to.

T1 sequence (P29279 27-349): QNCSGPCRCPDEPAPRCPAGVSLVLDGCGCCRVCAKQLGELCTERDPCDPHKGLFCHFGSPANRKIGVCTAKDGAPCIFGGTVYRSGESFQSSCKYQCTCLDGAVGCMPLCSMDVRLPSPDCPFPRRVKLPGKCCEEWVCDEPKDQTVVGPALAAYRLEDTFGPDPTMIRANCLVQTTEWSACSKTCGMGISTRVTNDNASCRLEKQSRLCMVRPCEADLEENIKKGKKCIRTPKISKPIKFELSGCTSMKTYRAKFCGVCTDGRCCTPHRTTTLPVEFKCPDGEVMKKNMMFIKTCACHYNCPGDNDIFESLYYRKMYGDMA

B1: anti-CTGF scFv B2 (scFv, V domains shown)
VH: QVQLVQSGAEVKKPGESLKISCKGSGYKFTSYWIAWVRQMPGKGLEWMGIIYPGGSDTRYSPSFQGQVTISDDRSSSTTYLQWSSLKASDTAIYYCARSGELMDVWGQGTTVTVSS
VL: SYVLTQPPSVSVSPGQTVSITCSGDKLGNKYASWYQQRPGQSPILVIYQDTKRPSGIPERFSGSNSGNTATLTISGTQAMDEADYYCQAWDSNTAFFGTGTKVTVL
notes: VH of scFv B2; the classical (Gly4Ser)3 linker between VH and VL; VL of scFv B2; Order VH-linker-VL as in the library construction; Selected from a fully human phage library made from PBMCs of RA patients; also called parental scFv B2; source: E. coli (pET28a, IPTG induced), purified (Ni Sepharose)
Turning to B1, in experiment [1], the Kd is 252 nM, the koff turned out to be 0.00574 s⁻¹ and the kon is 22800 M⁻¹ s⁻¹. The “EC50 of inhibition of CTGF-induced HUVEC proliferation, CCK-8 assay, scFv 1-500 nM” value in experiment [2] was determined as 37.4 nM.

B2: anti-CTGF IgG mut-B2 (antibody, V domains shown)
VH: B1 VH with S99L, E101G, L102A
VL: B1 VL with V103L
notes: heavy chain: VH of m3 with human IgG1 constant region; light chain: VL of m3 with antibody constant region; Human IgG1 format; also called full-length antibody IgG mut-B2; source: ExpiCHO, transiently expressed, purified from supernatant (Protein G Sepharose); copies: 2 + 2
For the molecule B2, in experiment [1], the Kd was 0.782 nM, the koff worked out at 0.00365 s⁻¹ and the kon turned out to be 4.67e+06 M⁻¹ s⁻¹.

B3: mut-scFv B2 (scFv, V domains shown)
VH: B1 VH with S99L, E101G, L102A
VL: B1 VL
notes: VH of mut-scFv B2; as the VH of m2 with three changes in VH-CDR3; the classical (Gly4Ser)3 linker between VH and VL; VL as the VL of m2; source: E. coli (pET28a, IPTG induced), purified (Ni Sepharose)
For B3, in experiment [1], the Kd was 1.96 nM, the koff was 0.00222 s⁻¹ and the kon turned out to be 1.13e+06 M⁻¹ s⁻¹. Further, in experiment [2], the “EC50 of inhibition of CTGF-induced HUVEC proliferation, CCK-8 assay, scFv 1-500 nM” value was determined as 27.5 nM.
